{"source": "patent US8383117", "binders": {"B1": {"name": "VB1-008 monoclonal antibody (antibody, V domains shown)", "VH": "QVQLQELGPRLVRPSQTLILTCTVSGGSVSGDEYYWSWLRQTPGKGLEWIGYMSYRGSSYYSPSLQSRVTIAVDRSKNEFSLKLTSVTAADAAVYFCARKYCGGDCRSGFDIWGRGTMVTVAS", "VL": "YELTQPPSVSVSPGQKAFITCSGDNLGNKYVCWYQQKPGQSPVLVIYEDTKRPSGIPERFSASNSGNTATLTISGTQPIDEADYYCQAWDSRTEIFGTGTKVTVLS", "notes": "also called 17P2/C12"}}, "key": {"[1]": {"target": "T1, CD44E (CD44 isoform 3, epithelial form) (human, UniProt P16070 21-742)", "T1 construct": "also called CD44v8-10; VB1-008 Ag", "T1 sequence (P16070 other isoform, or with tags, fused parts or gaps limits assumed)": "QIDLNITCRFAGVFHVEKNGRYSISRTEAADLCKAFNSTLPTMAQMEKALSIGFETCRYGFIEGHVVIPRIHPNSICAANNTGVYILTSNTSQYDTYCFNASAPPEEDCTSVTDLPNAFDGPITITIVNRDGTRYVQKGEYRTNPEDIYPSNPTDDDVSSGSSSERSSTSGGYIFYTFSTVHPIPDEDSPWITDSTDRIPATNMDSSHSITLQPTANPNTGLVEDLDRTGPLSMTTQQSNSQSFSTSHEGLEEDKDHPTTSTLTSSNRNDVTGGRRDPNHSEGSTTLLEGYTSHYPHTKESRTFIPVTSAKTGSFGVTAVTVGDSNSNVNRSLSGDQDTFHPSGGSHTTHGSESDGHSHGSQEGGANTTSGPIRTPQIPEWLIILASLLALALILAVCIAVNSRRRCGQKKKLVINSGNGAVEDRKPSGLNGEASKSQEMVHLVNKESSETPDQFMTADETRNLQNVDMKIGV", "experiment": "flow cytometry, A-375 cells, surface-bound antibody after 120 min at 37 °C"}, "[2]": {"target": "T1, CD44E (CD44 isoform 3, epithelial form)", "experiment": "flow cytometry, PANC-1 cells (called a negative line in the immunoprecipitation)"}, "[3]": {"target": "T1, CD44E (CD44 isoform 3, epithelial form)", "experiment": "flow cytometry, PANC-1 cells (no antigen purified from this line)"}, "[4]": {"target": "T1, CD44E (CD44 isoform 3, epithelial form)", "experiment": "flow cytometry, RAMOS cells; control 4B5-IgG", "from_the_text": "(§1) Appropriate isotype-matched controls were also used in the study."}, "[5]": {"target": "T1, CD44E (CD44 isoform 3, epithelial form)", "experiment": "flow cytometry, A-375 cells; control 4B5-IgG", "from_the_text": "as §1"}, "[6]": {"target": "T1, CD44E (CD44 isoform 3, epithelial form)", "experiment": "flow cytometry, MCF-7 cells", "from_the_text": "as §1"}, "[7]": {"target": "T1, CD44E (CD44 isoform 3, epithelial form)", "experiment": "flow cytometry, RAMOS cells (called a negative line)"}, "[8]": {"target": "T1, CD44E (CD44 isoform 3, epithelial form)", "experiment": "flow cytometry saturation curve on A-375 tumor cells, Lineweaver-Burk; antigen on the cells identified later in the filing as CD44E", "method": "Values and graphical analysis were generated using Sigma Plot (Jandel Scientific, San Rafael, Calif.). The inverse of the determined median fluorescence was plotted as a function of the inverse of antibody concentration to determine KD by the Lineweaver-Burk method. A straight line was generated and the KD was calculated from the slope of the curve."}, "[9]": {"target": "T1, CD44E (CD44 isoform 3, epithelial form)", "experiment": "flow cytometry, MB231 cells; control 4B5-IgG", "from_the_text": "as §1"}, "[10]": {"target": "T1, CD44E (CD44 isoform 3, epithelial form)", "experiment": "flow cytometry, MCF-7 cells (weakly positive line)"}, "[11]": {"target": "T1, CD44E (CD44 isoform 3, epithelial form)", "experiment": "flow cytometry, DAUDI cells (called antigen-negative)"}, "[12]": {"target": "T1, CD44E (CD44 isoform 3, epithelial form)", "experiment": "flow cytometry, DAUDI cells (called antigen-negative)", "remark": "listed apart in the source"}, "[13]": {"target": "T1, CD44E (CD44 isoform 3, epithelial form)", "experiment": "flow cytometry, MDA-MB-435S cells (very positive line)"}, "[14]": {"target": "T1, CD44E (CD44 isoform 3, epithelial form)", "experiment": "flow cytometry, MDA-MB-231 cells (moderately positive line)"}, "[15]": {"target": "T1, CD44E (CD44 isoform 3, epithelial form)", "experiment": "flow cytometry, A-375 cells (very positive line)"}, "[16]": {"target": "T1, CD44E (CD44 isoform 3, epithelial form)", "experiment": "flow cytometry, MB435S cells; control 4B5-IgG", "from_the_text": "as §1"}, "[17]": {"target": "T1, CD44E (CD44 isoform 3, epithelial form)", "experiment": "flow cytometry, DAUDI cells (called antigen-negative); control 4B5-IgG"}, "[18]": {"target": "T1, CD44E (CD44 isoform 3, epithelial form)", "experiment": "flow cytometry, PANC-1 cells; control 4B5-IgG", "from_the_text": "as §1"}, "[19]": {"target": "T1, CD44E (CD44 isoform 3, epithelial form)", "experiment": "flow cytometry, MCF-7 cells; control 4B5-IgG", "from_the_text": "as §1"}, "[20]": {"target": "T1, CD44E (CD44 isoform 3, epithelial form)", "experiment": "flow cytometry, RAMOS cells"}, "[21]": {"target": "T1, CD44E (CD44 isoform 3, epithelial form)", "experiment": "flow cytometry, A-375 cells"}, "[22]": {"target": "T1, CD44E (CD44 isoform 3, epithelial form)", "experiment": "flow cytometry, A-375 cells kept on ice for 120 min; over human IgG (4B5)"}, "[23]": {"target": "T1, CD44E (CD44 isoform 3, epithelial form)", "experiment": "flow cytometry, MB435S cells", "from_the_text": "as §1"}, "[24]": {"target": "T1, CD44E (CD44 isoform 3, epithelial form)", "experiment": "flow cytometry, A-375 cells, surface-bound antibody after 60 min at 37 °C"}, "[25]": {"target": "T1, CD44E (CD44 isoform 3, epithelial form)", "experiment": "flow cytometry, MB231 cells", "from_the_text": "as §1"}}, "data": [{"binder": "B1", "values": [{"measurement": "Fold-increase in MF", "setting": "[1]", "result": 12, "unit": "fold"}, {"measurement": "increase in median fluorescence over isotype-matched control (MF)", "setting": "[2]", "result": 8.3, "unit": "fold"}, {"measurement": "Flow results", "setting": "[3]", "result": 8.95, "unit": "fold"}, {"measurement": "fold-increase in median fluorescence over isotype-matched control", "setting": "[4]", "result": 1.1, "unit": "fold"}, {"measurement": "fold-increase in median fluorescence over isotype-matched control", "setting": "[5]", "result": 13.3, "unit": "fold"}, {"measurement": "Flow results", "setting": "[6]", "result": 4.63, "unit": "fold"}, {"measurement": "increase in median fluorescence over isotype-matched control (MF)", "setting": "[7]", "result": 1.3, "unit": "fold"}, {"measurement": "Kd", "setting": "[8]", "result": 58.8, "unit": "nM"}, {"measurement": "fold-increase in median fluorescence over isotype-matched control", "setting": "[9]", "result": 14.2, "unit": "fold"}, {"measurement": "increase in median fluorescence over isotype-matched control (MF)", "setting": "[10]", "result": 4.67, "unit": "fold"}, {"measurement": "increase in median fluorescence over isotype-matched control (MF)", "setting": "[11]", "result": 1.1, "unit": "fold"}, {"measurement": "Flow results", "setting": "[12]", "result": 1, "unit": "fold"}, {"measurement": "increase in median fluorescence over isotype-matched control (MF)", "setting": "[13]", "result": 15.8, "unit": "fold"}, {"measurement": "increase in median fluorescence over isotype-matched control (MF)", "setting": "[14]", "result": 14.2, "unit": "fold"}, {"measurement": "increase in median fluorescence over isotype-matched control (MF)", "setting": "[15]", "result": 13.3, "unit": "fold"}, {"measurement": "fold-increase in median fluorescence over isotype-matched control", "setting": "[16]", "result": 15.8, "unit": "fold"}, {"measurement": "fold-increase in median fluorescence over isotype-matched control", "setting": "[17]", "result": 1, "unit": "fold"}, {"measurement": "fold-increase in median fluorescence over isotype-matched control", "setting": "[18]", "result": 8.3, "unit": "fold"}, {"measurement": "fold-increase in median fluorescence over isotype-matched control", "setting": "[19]", "result": 4.63, "unit": "fold"}, {"measurement": "Flow results", "setting": "[20]", "result": 1.1, "unit": "fold"}, {"measurement": "Flow results", "setting": "[21]", "result": 11.1, "unit": "fold"}, {"measurement": "Fold-increase in MF", "setting": "[22]", "result": 31.7, "unit": "fold"}, {"measurement": "Flow results", "setting": "[23]", "result": 15.8, "unit": "fold"}, {"measurement": "Fold-increase in MF", "setting": "[24]", "result": 13.5, "unit": "fold"}, {"measurement": "Flow results", "setting": "[25]", "result": 14.2, "unit": "fold"}]}]}
